Laboratory results: patent US20230190950A1, “COMPOSITIONS AND METHODS FOR THE TREATMENT OF BACTERIAL INFECTIONS” (Cidara Therapeutics, Inc., priority 2017, published 2023)

Experiments:
[1] = system: E. coli ATCC 25922; experiment: Complement-dependent cytotoxicity (CDC) assay; format: cell-based, Escherichia coli; conditions: 0.2 uM; 10% normal human serum; 90 minutes
Protocol: Gram-negative bacteria were cultured overnight in Luria-Bertani (LB) (BD Difco™ Cat. 244620) at 37° C. under constant agitation. The next day, bacteria were grown to log phase until the OD600 reached 0.4 (˜10^8 CFU/mL). Bacteria were washed in DPBS pH 7.4 (Gibco 10010-023) resuspended in RPMI 1640 (Gibco 11-835-055) at 10^6 CFU/mL and […] was added to the wells of a 96-well, TC-treated, polystyrene plate (Fisher 08-772-2C).
The plates were incubated at 37° C. for 90 minutes. At the end of the assay, wells were serially diluted in sterile water and remaining bacteria were cultured overnight at 37° C. on agar plates. Colonies were counted the next day and CFU/mL and % survival normalized to RPMI control was determined using the following equations: CFU/mL=(colonies*dilution factor)/volume and […] normalized to RPMI=([CFU/mL of test condition]/[CFU/mL of molecule in RPMI])*100.

[2] = system: Escherichia coli BW25113; experiment: MIC assay (broth microdilution), Ec BW; format: cell-based; conditions: assay media RPMI A
Protocol: (§1) Bacterial strains were stored as glycerol stocks at −80° C. prior to culturing on cation-adjusted Mueller-Hinton agar (MHA; BD cat. no. 211438) at 37° C. Antibacterial activity was assessed against a panel consisting of Escherichia coli, Acinetobacter baumannii, Pseudomonas aeruginosa, and Klebsiella pneumoniae strains (see Table 2).
(§2) Briefly, stock solutions of all antibacterial agents were prepared fresh in appropriate solvents (i.e. PBS, pH 7.4, DMSO, DI, etc.). Stock concentrations were made at 50× the highest final assay concentration and serially diluted 2-fold, 8 or 12 times in a 96-well PCR plate (VWR cat. no. 83007-374). Bacterial cell suspensions generated from MHA plate cultures were prepared in 0.85% saline and adjusted to ˜0.1 OD600 nm. […] Dorschner R A et al., The mammalian ionic environment dictates microbial susceptibility to antimicrobial defense peptides. FASEB J. 20(1):35-42 (2017). Ninety-eight microliters of each cell suspension in MHB were added to test wells in a 96-well assay plate (Costar cat. no. 3370). A Beckman Multimek 96 liquid handling robot was used to dispense 2 μL of each 50× stock compound into the plate containing 98 μL of each strain in MHB (2% final solvent concentration). E. coli strains BW25113 and ATCC 25922 were run in the presence and absence of 50% heat-inactivated fetal bovine serum (FBS; Sigma, cat. no. F4135-100 mL). Plates were mixed by shaking then incubated at 37° C. overnight (16-20 h).

[3] = system: Escherichia coli BW25113 + pUC18-mcr-1; experiment: MIC assay (broth microdilution), Ec BW (mcr-1); format: cell-based; conditions: assay media RPMI A
Text: An mcr-1 expression plasmid was constructed (GenScript; Piscataway, N.J.) using the pUC18 high copy number plasmid (Yanisch-Perron, et al., 1985). A 1649-bp fragment was synthesized containing, in order from 5′ to 3′: EcoR1 restriction site (5′-GAATTC-3′), a ribosomal binding site (5′-AGGAGG-3′), a 5-bp native start codon upstream sequence (5′-TTCTC-3′) from the mcr-1-bearing plasmid pHNSHP45 (Liu, Y Y, et al., 2015; GenBank Accession #KP347127), the 1626-bp mcr-1 open reading frame with stop codon (“orf00073” of GenBank Accession #KP347127), and finally an Xba1 restriction site sequence (5′-TCTAGA-3′). […] The pUC18-mcr-1 plasmid was transformed into chemically-competent E. coli BW25113 (Coli Genetic Stock Center #7636) as described previously (Chung, et al., PNAS. 1989), recovered for 1 h shaking at 37° C. in Super Optimal broth with Catabolite repression (SOC) media and then aliquots were plated on Luria-Bertani (LB) media containing 100 μg/mL of carbenicillin. Putative transformant colonies were then verified in MIC assays.
as §1
Briefly, stock solutions of all antibacterial agents were prepared fresh in appropriate solvents (i.e. PBS, pH 7.4, DMSO, DI, etc.). Stock concentrations were made at 50× the highest final assay concentration and serially diluted 2-fold, 8 or 12 times in a 96-well PCR plate (VWR cat. no. 83007-374). Bacterial cell suspensions generated from MHA plate cultures were prepared in 0.85% saline and adjusted to ˜0.1 OD600 nm. […] Later, conjugates 16 and 17, and 20-25 were evaluated in RPMI 1640 medium (+) L-glutamine, (+) sodium bicarbonate, pH 7.4 (“RPMI B”; Gibco, cat. no. 11875-085) as has been described as a more physiologically-relevant media for susceptibility testing of antibacterial compounds. […]

[4] = system: Escherichia coli BW25113 4X-12 (COL-R); experiment: MIC assay (broth microdilution), Ec BW 4X-12 (COL-R); format: cell-based; conditions: assay media RPMI A
Protocol: as §1
(§3) Briefly, stock solutions of all antibacterial agents were prepared fresh in appropriate solvents (i.e. PBS, pH 7.4, DMSO, DI, etc.). Stock concentrations were made at 50× the highest final assay concentration and serially diluted 2-fold, 8 or 12 times in a 96-well PCR plate (VWR cat. no. 83007-374). Bacterial cell suspensions generated from MHA plate cultures were prepared in 0.85% saline and adjusted to ˜0.1 OD600 nm. Next, cell suspensions were diluted 1:200 in RPMI containing 5% Luria Broth (LB) to improve bacterial growth (BD Difco, cat. no. 244620) to a concentration of ˜5×10^5 CFU (colony-forming units)/mL. […] Later, conjugates 16 and 17, and 20-25 were evaluated in RPMI 1640 medium (+) L-glutamine, (+) sodium bicarbonate, pH 7.4 (“RPMI B”; Gibco, cat. no. 11875-085) as has been described as a more physiologically-relevant media for susceptibility testing of antibacterial compounds. Dorschner R A et al., The mammalian ionic environment dictates microbial susceptibility to antimicrobial defense peptides. FASEB J. 20(1):35-42 (2017). Ninety-eight microliters of each cell suspension in MHB were added to test wells in a 96-well assay plate (Costar cat. no. 3370). A Beckman Multimek 96 liquid handling robot was used to dispense 2 μL of each 50× stock compound into the plate containing 98 μL of each strain in MHB (2% final solvent concentration). E. coli strains BW25113 and ATCC 25922 were run in the presence and absence of 50% heat-inactivated fetal bovine serum (FBS; Sigma, cat. no. F4135-100 mL). Plates were mixed by shaking then incubated at 37° C. overnight (16-20 h).

[5] = system: Escherichia coli ATCC 25922; experiment: MIC assay (broth microdilution), Ec 25922; format: cell-based; conditions: assay media RPMI A
Protocol: as §1, §2

[6] = system: Escherichia coli ATCC BAA-2469; experiment: MIC assay (broth microdilution), Ec 2469; format: cell-based; conditions: assay media RPMI A
Protocol: as §1, §2

[7] = system: Acinetobacter baumannii ATCC 19606; experiment: MIC assay (broth microdilution), Ab 19606; format: cell-based; conditions: assay media RPMI A
Protocol: as §1, §2

[8] = system: Acinetobacter baumannii ABS075-UW; experiment: MIC assay (broth microdilution), Ab ABS075; format: cell-based; conditions: assay media RPMI A
Protocol: as §1, §2

[9] = system: Pseudomonas aeruginosa PAO1; experiment: MIC assay (broth microdilution), Pa PAO1; format: cell-based; conditions: assay media RPMI A
Protocol: as §1, §3

[10] = molecular target: T1, recombinant mouse FcRn (Mus musculus, UniProt Q61559); experiment: Binding of conjugates to FcRn (ELISA), mouse; conditions: pH 6.25; 20 μg/mL starting concentration, 2-fold diluted
T1 construct: purchased R&D 6775-FC-050
T1 sequence (Q61559 22-297 limits assumed): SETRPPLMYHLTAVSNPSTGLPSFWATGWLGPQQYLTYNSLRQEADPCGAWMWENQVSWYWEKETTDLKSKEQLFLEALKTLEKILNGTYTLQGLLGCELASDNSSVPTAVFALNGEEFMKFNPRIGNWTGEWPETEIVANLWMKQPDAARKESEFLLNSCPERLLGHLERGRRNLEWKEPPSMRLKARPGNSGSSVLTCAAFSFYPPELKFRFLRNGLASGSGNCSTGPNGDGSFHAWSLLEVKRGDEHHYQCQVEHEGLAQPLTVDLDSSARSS
T1 sequence (P01887 21-119 partner): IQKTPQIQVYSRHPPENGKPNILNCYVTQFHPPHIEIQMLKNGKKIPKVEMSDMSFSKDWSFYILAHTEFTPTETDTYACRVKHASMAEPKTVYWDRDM
Protocol: 96-well ELISA plates (Fisher, Cat. No. 12-565-136) were coated with 0.25 μg/well of recombinant mouse FcRn (R&D, Cat. No. 6775-FC-050) or recombinant human FcRn (R&D, Cat. No. 8639-FC-050) in carbonate-bicarbonate buffer (Sigma, Cat. No. C34041) at pH 6.25 overnight at 37° C. A pH of 6.25 was maintained during the complete experiment. Blocking was carried out with 5% skim milk in PBS with 0.05% Tween 20. Purified conjugates were added at 20 μg/mL starting concentration and serially 2-fold diluted in blocking buffer. For detection, HRP-labeled secondary anti-mouse IgG-HRP (GE Healthcare, Cat. No. NA931V) or anti-human IgG-HRP (GE Healthcare, Cat. No. NA933V) was used to detect the bound conjugates. Absorbance was measured at 450 nm with a 96-well microplate reader and data were analyzed using GraphPad Prism software, FIGS. 33A-33F.

Row | Molecule | antibacterial activity in the presence of 10% complement active NHS [1] | MIC, Ec BW [2] [µg/mL] | MIC, Ec BW + FBS ([2]; 50% heat-inactivated FBS) [µg/mL] | MIC, Ec BW (mcr-1) [3] [µg/mL] | MIC, Ec BW 4X-12 (COL-R) [4] [µg/mL] | MIC, Ec 25922 [5] [µg/mL] | MIC, Ec 25922 + FBS ([5]; 50% heat-inactivated FBS) [µg/mL] | MIC, Ec 2469 [6] [µg/mL] | MIC Ab 19606 [7] [µg/mL] | MIC Ab AB5075 [8] [µg/mL] | MIC Pa PAO1 [9] [µg/mL] | binding to mouse FcRn (ELISA) [10]
1 | control molecule: "unconjugated control Fc molecule (m-IgG2a type; SEQ ID NO: 2)" (protein, listed as Mus musculus) PRGPTIKPCPPCKCPAPNLLGGPSVFIFPPKIKDVLMISLSPIVTCVVVDVSEDDPDVQISWFVNNVEVHTAQTQTHREDYNSTLRVVSALPIQHQDWMSGKEFKCKVNNKDLPAPIERTISKPKGSVRAPQVYVLPPPEEEMTKKQVTLTCMVTDFMPEDIYVEWTNNGKTELNYKNTEPVLDSDGSYFMYSKLRVEKKNWVERNSYSCSVVHEGLHNHHTTKSFSRTPGK | no antibacterial activity |  |  |  |  |  |  |  |  |  |  | 
2 | Conjugate 15 (conjugate, cyclised or stapled) PRGPTIKPCPPCKCPAPNLLGGPSVFIFPPKIKDVLMISLSPIVTCVVVDVSEDDPDVQISWFVNNVEVHTAQTQTHREDYNSTLRVVSALPIQHQDWMSGKEFKCKVNNKDLPAPIERTISKPKGSVRAPQVYVLPPPEEEMTKKQVTLTCMVTDFMPEDIYVEWTNNGKTELNYKNTEPVLDSDGSYFMYSKLRVEKKNWVERNSYSCSVVHEGLHNHHTTKSFSRTPGKHHHHHH |  | >128 | >128 | >128 | >128 | >128 | >128 | >128 | >128 | >128 | 16 | does not interfere with FcRn interaction
